Where a chain is given by its changes, count along the chain named. In names and notes the source's numbering stands. Each block holds one binder with its values, some of them ahead of it.
Target: T1, CEACAM1 (Sino Biological) (human, UniProt P13688 35-428, limits assumed)
T1 construct: may be the same as CEACAM1-HIS; also called hCEACAM1; biotinylated soluble CEACAM1
T1 sequence: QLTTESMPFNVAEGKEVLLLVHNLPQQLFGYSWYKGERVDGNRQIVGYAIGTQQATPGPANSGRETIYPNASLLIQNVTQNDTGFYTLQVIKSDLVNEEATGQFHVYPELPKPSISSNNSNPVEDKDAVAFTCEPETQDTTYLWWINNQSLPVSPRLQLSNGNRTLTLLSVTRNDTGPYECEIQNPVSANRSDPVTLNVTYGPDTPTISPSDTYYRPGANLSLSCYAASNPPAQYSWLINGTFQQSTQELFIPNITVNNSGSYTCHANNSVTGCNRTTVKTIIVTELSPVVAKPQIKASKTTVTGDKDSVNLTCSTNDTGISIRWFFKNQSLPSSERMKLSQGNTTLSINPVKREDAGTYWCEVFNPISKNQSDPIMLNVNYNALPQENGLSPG
Experiment: SPR single-cycle
Protocol: To assess the binding of the humanized affinity matured IgGs, single cycle kinetics analysis was performed on crude supernatants using a Biacore T200 running Biacore T200 Control Software V2.0.1 and Biacore T200 Evaluation Software V3.0 (Uppsala, Sweden). Antibodies were diluted in HBS-P+ (GE Healthcare) to a final concentration of […]. At the start of each cycle, antibodies were loaded onto Fc2, Fc3 and Fc4 of the Protein A chip (GE Healthcare). IgGs were captured at a flow rate of 10 μl/min to give an immobilization level (RL) of ˜100 RU (a level calculated to obtain an Rmax of ˜50-150 RU once the analyte is bound). The surface was then allowed to stabilize. Single cycle kinetics data was obtained with CEACAM1 as the analyte at a flow rate of […] to minimize any potential mass transfer effects. Multiple repeats with the parent (VH2 N56Q/Vκ4 S27(f)A) antibody were performed to check the stability of the surface and analyte over the kinetic cycles. The signal from the reference channel Fc1 (no antibody) was subtracted from that of Fc2, Fc3 and Fc4 to correct for differences in non-specific binding to the reference surface. A three point, two-fold dilution range from 25 nM to 100 nM CEACAM 1 without regeneration between each concentration was used. The signal from each antibody blank run (no CEACAM1) was subtracted to correct for differences in surface stability. The association phase for the three injections of increasing concentrations of CEACAM1 was monitored for 200 seconds each time and a single dissociation phase was measured for 300 seconds following the last injection of CEACAM1. Regeneration of the Protein A surface was conducted using two injections of 10 mM glycine-HCL pH 1.5 followed by a stabilization period of 240 seconds.

B1: He3/L4 #1 (antibody, IgG4, V domains shown)
VH: EVQLLESGGGLVQPGGSLRLSCAASGFSFSDYYLYWVRQAPGKGLEWVATISVGGGQTSYADSVKGRFTISRDNSKNTLYLQMNSLRAEDTAMYYCTRALTYGPAWLAYWGQGTLVTVSS
VL: DIVMTQSPDSLAVSLGERATINCKSSQSLLNSANQKNYLAWYQQKPGQPPKLLIYFASTRESGVPDRFSGSGSGTDFTLTISSLQAEDVAVYYCQSHFPYYYTFGGGTKVEIK
notes: IgG4 S241P, kappa
Kd: 99 nM
fold better than Parent (KD): 1.61 fold

B2: He4/L17 (antibody, IgG4, V domains shown)
VH: B1 VH with T101Y, L107F
VL: B1 VL with F98Y, Y101P
notes: IgG4 S241P, kappa
Kd: 62 nM
fold better than Parent (KD): 2.55 fold

B3: He4/Parent VL (antibody, IgG4, V domains shown)
VH: B1 VH with T101Y, L107F
VL: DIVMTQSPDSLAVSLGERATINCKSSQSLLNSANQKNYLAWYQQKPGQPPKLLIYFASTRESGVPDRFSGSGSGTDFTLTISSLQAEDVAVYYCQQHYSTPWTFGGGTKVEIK
notes: IgG4 S241P, kappa
Kd: 155 nM
fold better than Parent (KD): 1.03 fold

B4: He3/L18 (antibody, IgG4, V domains shown)
VH: B1 VH
VL: B1 VL with Y101P, Y102F
notes: IgG4 S241P, kappa
Kd: 82 nM
fold better than Parent (KD): 1.94 fold

B8: He3/L16 (antibody, IgG4, V domains shown)
VH: B1 VH
VL: B1 VL with F98Y, Y101P, Y102F
notes: IgG4 S241P, kappa
Kd: 72 nM
fold better than Parent (KD): 2.22 fold

B9: He4/L3 (antibody, IgG4, V domains shown)
VH: B1 VH with T101Y, L107F
VL: B1 VL with Y100F, Y101P, Y102F
notes: IgG4 S241P, kappa
Kd: 55 nM
fold better than Parent (KD): 2.87 fold

B10: He3/Parent VL (antibody, IgG4, V domains shown)
VH: B1 VH
VL: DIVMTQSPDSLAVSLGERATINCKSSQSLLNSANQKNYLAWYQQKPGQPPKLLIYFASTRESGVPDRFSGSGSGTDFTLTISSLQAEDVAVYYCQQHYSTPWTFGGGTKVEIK
notes: IgG4 S241P, kappa
Kd: 78 nM
fold better than Parent (KD): 2.03 fold

B11: He4/L20 (antibody, IgG4, V domains shown)
VH: B1 VH with T101Y, L107F
VL: B1 VL with Y101P, Y102L
notes: IgG4 S241P, kappa
Kd: 90 nM
fold better than Parent (KD): 1.77 fold

B12: He3/L4#2 (antibody, IgG4, V domains shown)
VH: B1 VH
VL: B1 VL with F98Y, Y101P
notes: IgG4 S241P, kappa
Kd: 130 nM
fold better than Parent (KD): 4.24 fold

B13: He3/L5 (antibody, IgG4, V domains shown)
VH: B1 VH
VL: B1 VL with F98Y, Y100F, Y101A, Y102F
notes: IgG4 S241P, kappa
Kd: 95 nM
fold better than Parent (KD): 1.68 fold

B14: He4/L4#2 (antibody, IgG4, V domains shown)
VH: B1 VH with T101Y, L107F
VL: B1 VL with F98Y, Y101P
notes: IgG4 S241P, kappa
Kd: 127 nM
fold better than Parent (KD): 4.34 fold

B16: He4/L19 (antibody, IgG4, V domains shown)
VH: B1 VH with T101Y, L107F
VL: B1 VL with F98I, P99Y, Y100P, Y101N, Y102F
notes: IgG4 S241P, kappa
Kd: 90 nM
fold better than Parent (KD): 1.77 fold

B20: He4/L1 (antibody, IgG4, V domains shown)
VH: B1 VH with T101Y, L107F
VL: B1 VL with F98Y, Y100F
notes: IgG4 S241P, kappa
Kd: 64 nM
fold better than Parent (KD): 2.49 fold

B22: He4/L6 (antibody, IgG4, V domains shown)
VH: B1 VH with T101Y, L107F
VL: B1 VL with F98Y, Y100F, Y101S, Y102F
notes: IgG4 S241P, kappa
Kd: 72 nM
fold better than Parent (KD): 2.22 fold

B24: He3/L6 (antibody, IgG4, V domains shown)
VH: B1 VH
VL: B1 VL with F98Y, Y100F, Y101S, Y102F
notes: IgG4 S241P, kappa
Kd: 93 nM
fold better than Parent (KD): 1.72 fold

B25: He4/L18 (antibody, IgG4, V domains shown)
VH: B1 VH with T101Y, L107F
VL: B1 VL with Y101P, Y102F
notes: IgG4 S241P, kappa
Kd: 55 nM
fold better than Parent (KD): 2.89 fold

B26: He4/L4 #1 (antibody, IgG4, V domains shown)
VH: B1 VH with T101Y, L107F
VL: B1 VL
notes: IgG4 S241P, kappa
Kd: 83 nM
fold better than Parent (KD): 1.91 fold

B30: He3/L19 (antibody, IgG4, V domains shown)
VH: B1 VH
VL: B1 VL with F98I, P99Y, Y100P, Y101N, Y102F
notes: IgG4 S241P, kappa
Kd: 135 nM
fold better than Parent (KD): 1.18 fold

B31: He3/L17 (antibody, IgG4, V domains shown)
VH: B1 VH
VL: B1 VL with F98Y, Y101P
notes: IgG4 S241P, kappa
Kd: 83 nM
fold better than Parent (KD): 1.91 fold

B32: He4/L5 (antibody, IgG4, V domains shown)
VH: B1 VH with T101Y, L107F
VL: B1 VL with F98Y, Y100F, Y101A, Y102F
notes: IgG4 S241P, kappa
Kd: 68 nM
fold better than Parent (KD): 2.36 fold

B33: He4/L2 (antibody, IgG4, V domains shown)
VH: B1 VH with T101Y, L107F
VL: B1 VL with F98Y, Y100F, Y101P
notes: IgG4 S241P, kappa
Kd: 76 nM
fold better than Parent (KD): 2.09 fold

Now from value to binder:

Kd: 66 nM
fold better than Parent (KD): 2.41 fold
B5: He6/L16 (antibody, IgG4, V domains shown)
VH: B1 VH with T97A, L100R, L107F
VL: B1 VL with F98Y, Y101P, Y102F
notes: IgG4 S241P, kappa

Kd: 84 nM
fold better than Parent (KD): 1.89 fold
B6: He6/L5 (antibody, IgG4, V domains shown)
VH: B1 VH with T97A, L100R, L107F
VL: B1 VL with F98Y, Y100F, Y101A, Y102F
notes: IgG4 S241P, kappa

Kd: 155 nM
fold better than Parent (KD): 1.03 fold
B7: He6/L4 #1 (antibody, IgG4, V domains shown)
VH: B1 VH with T97A, L100R, L107F
VL: B1 VL
notes: IgG4 S241P, kappa

Kd: 91 nM
fold better than Parent (KD): 1.75 fold
B15: He6/L17 (antibody, IgG4, V domains shown)
VH: B1 VH with T97A, L100R, L107F
VL: B1 VL with F98Y, Y101P
notes: IgG4 S241P, kappa

Kd: 104 nM
fold better than Parent (KD): 1.53 fold
B17: He6/L2 (antibody, IgG4, V domains shown)
VH: B1 VH with T97A, L100R, L107F
VL: B1 VL with F98Y, Y100F, Y101P
notes: IgG4 S241P, kappa

Kd: 83 nM
fold better than Parent (KD): 1.92 fold
B18: He6/L18 (antibody, IgG4, V domains shown)
VH: B1 VH with T97A, L100R, L107F
VL: B1 VL with Y101P, Y102F
notes: IgG4 S241P, kappa

Kd: 98 nM
fold better than Parent (KD): 1.62 fold
B19: He6/L1 (antibody, IgG4, V domains shown)
VH: B1 VH with T97A, L100R, L107F
VL: B1 VL with F98Y, Y100F
notes: IgG4 S241P, kappa

Kd: 146 nM
fold better than Parent (KD): 3.78 fold
B21: He6/L4#2 (antibody, IgG4, V domains shown)
VH: B1 VH with T97A, L100R, L107F
VL: B1 VL with F98Y, Y101P
notes: IgG4 S241P, kappa

Kd: 89 nM
fold better than Parent (KD): 1.79 fold
B23: He6/L20 (antibody, IgG4, V domains shown)
VH: B1 VH with T97A, L100R, L107F
VL: B1 VL with Y101P, Y102L
notes: IgG4 S241P, kappa

Kd: 89 nM
fold better than Parent (KD): 1.78 fold
B27: He6/L6 (antibody, IgG4, V domains shown)
VH: B1 VH with T97A, L100R, L107F
VL: B1 VL with F98Y, Y100F, Y101S, Y102F
notes: IgG4 S241P, kappa

Kd: 237 nM
fold better than Parent (KD): 0.67 fold
B28: He6/L19 (antibody, IgG4, V domains shown)
VH: B1 VH with T97A, L100R, L107F
VL: B1 VL with F98I, P99Y, Y100P, Y101N, Y102F
notes: IgG4 S241P, kappa

Kd: 94 nM
fold better than Parent (KD): 1.69 fold
B29: He6/L3 (antibody, IgG4, V domains shown)
VH: B1 VH with T97A, L100R, L107F
VL: B1 VL with Y100F, Y101P, Y102F
notes: IgG4 S241P, kappa
